# Assay results as given in IntAct's records for PubMed 26586190.
# B1: Sestrin-2 (Homo sapiens), P58004 (parent)
# chain: MIVADSECRAELKDYLRFAPGGVGDSGPGEEQRESRARRGPRGPSAFIPVEEVLREGAESLEQHLGLEALMSSGRVDNLAVVMGLHPDYFTSFWRLHYLLLHTDGPLASSWRHYIAIMAAARHQCSYLVGSHMAEFLQTGGDPEWLLGLHRAPEKLRKLSEINKLLAHRPWLITKEHIQALLKTGEHTWSLAELIQALVLLTHCHSLSSFVFGCGILPEGDADGSPAPQAPTPPSEQSSPPSRDPLNNSGGFESARDVEALMERMQQLQESLLRDEGTSQEEMESRFELEKSESLLVTPSADILEPSPHPDMLCFVEDPTFGYEDFTRRGAQAPPTFRAQDYTWEDHGYSLIQRLYPEGGQLLDEKFQAAYSLTYNTIAMHSGVDTSVLRRAIWNYIHCVFGIRYDDYDYGEVNQLLERNLKVYIKTVACYPEKTTRRMYNLFWRHFRHSEKVHVNLLLLEARMQAALLYALRAITRYMT
# partner: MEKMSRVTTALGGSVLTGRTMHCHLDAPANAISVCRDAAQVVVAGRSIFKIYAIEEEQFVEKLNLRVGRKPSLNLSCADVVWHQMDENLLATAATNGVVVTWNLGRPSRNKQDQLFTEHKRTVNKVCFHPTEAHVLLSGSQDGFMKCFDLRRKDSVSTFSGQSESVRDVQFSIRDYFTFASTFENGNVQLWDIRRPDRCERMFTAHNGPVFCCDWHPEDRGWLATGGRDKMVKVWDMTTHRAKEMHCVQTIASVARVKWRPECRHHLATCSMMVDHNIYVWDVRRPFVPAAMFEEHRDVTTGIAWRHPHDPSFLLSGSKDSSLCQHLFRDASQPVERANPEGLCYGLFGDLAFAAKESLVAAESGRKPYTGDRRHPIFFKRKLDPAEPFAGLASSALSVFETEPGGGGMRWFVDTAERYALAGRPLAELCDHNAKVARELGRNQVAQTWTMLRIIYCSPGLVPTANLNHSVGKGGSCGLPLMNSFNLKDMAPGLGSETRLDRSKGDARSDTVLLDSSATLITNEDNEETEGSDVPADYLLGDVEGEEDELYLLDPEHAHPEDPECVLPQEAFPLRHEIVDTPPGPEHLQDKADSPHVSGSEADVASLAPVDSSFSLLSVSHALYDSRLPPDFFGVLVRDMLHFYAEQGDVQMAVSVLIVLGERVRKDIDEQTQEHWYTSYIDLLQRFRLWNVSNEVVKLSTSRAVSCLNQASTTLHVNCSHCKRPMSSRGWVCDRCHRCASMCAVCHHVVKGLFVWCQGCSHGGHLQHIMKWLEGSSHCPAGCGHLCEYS
# Variants of: B1
# Details: with wdr24_human WDR24, Q96S15
row,effect of a mutation on the interaction,Variant
1,disrupting interaction strength,D406A;D407A
